Data taken from US8487082B2, “Synthetic scFv analogue to the 6313/G2 (anti angiotensin II type 1 receptor) monoclonal antibody variable regions” (Queen Mary & Westfield College, priority 2008, dated 2013).

Experiments:
[1] = target: T1, antigenic peptide […] (AT1 receptor) (Rattus norvegicus, UniProt P25095); experiment: Antigen ELISA during panning of scFv library; format: binding
T1 construct: 96 well plates coated with the original antigenic peptide ([…]
Experimental: The 6313/G2 mouse monoclonal antibody hybridoma was grown as previously described (Barker et at J. Mol. Endocrinol. 11 241-245 (1993)). A pool of cDNA derived from mRNA was used to obtain heavy and light chains by PCR. A linker fragment encoding (Gly4Ser)3 was used to assemble the scFv library of inserts and a phage display library was created by directionally cloning these inserts into the pCANTAB 5 E phagemid vector (Amersham Pharmacia, High Wycombe, UK). An E-tag for the expressed sequence GAPVPYPDPLEPR (SEQ ID NO: 11) was included in this vector and used in subsequent panning and purification steps. The phagemid library was then used to transform TG1 E. coli, and phagemid rescue was carried out using the M13K07 helper phage followed by several rounds of panning Positive expressing clones were identified by ELISA using 96 well plates coated with the original antigenic peptide (EDGIKRIQDD; SEQ ID NO:1) and an anti-E-tag antibody (Amersham Pharmacia) detected using an HRP-linked secondary antibody. One particular clone was taken forward for expression and purification and functional assessment on the basis of giving the highest signal in the antigen ELISA.

[2] = Rat blood pressure (tail cuff); set-up: species or system Female Wistar rats; conditions: intact rats in vivo
Experimental: Rats were chosen for this part of the study in view of their greater tractability in blood pressure assays. Female Wistar rats were first acclimatised to handling and the blood pressure equipment for 4-5 days before experimentation. Blood pressure in the conscious animals was determined using a Kent Scientific Corporation (Torrington Conn., USA) Coda 6+ tail cuff system in which the animals were held in warmed restrainers while blood pressures were assessed. Animals were first stabilised and their basal blood pressure taken before treatment. They were then briefly removed from the restrainers for sc injection of R6313/G2, 0.4 mg/kg in sterile PBS (0.1 ml). Controls received PBS alone. Blood pressures were then taken at intervals over a period of 1 hour, before restoring to cages. The procedures were repeated daily for 3 days.

[3] = Body weight, aldosterone and activity of hollow fiber mice; format: in vivo, nu/nu mice
[4] = system: T47D cells; experiment: Apoptosis - caspase-3/7 activity; format: cell-based
Description: Cells were harvested using Trypsin/EDTA and counted.

[5] = system: cancer cells in hollow fibers; experiment: In vivo hollow fiber assay (summary statements); set-up: species or system nu/nu mice
Experimental: (§1) Hollow Fiber procedures followed the method of Hollingshead. (Hollingshead et al Life Sci 57 131-41 (1995)).
Cell-loaded hollow fiber segments were incubated at 37° C. in culture medium overnight before implantation into pure strain 5-6 week old female balb/c nu/nu mice. Fibers were implanted into the animals under anaesthesia (2% Isofluorane). Three 2 cm fibers, each containing one of the cell lines MCF-7, T47D, or MDA-MB-231, were implanted at both subcutaneous (s.c.) and intraperitoneal (i.p.) sites into each animal. For i.p. implants, a small incision was made through the skin and musculature of the ventral abdominal wall. Fibers were placed into the peritoneal cavity and both incisions were closed with metallic suture clips (Harvard Instruments, Edenbridge UK). For s.c. implants, a small incision was made dorsally. The fibers were implanted to the left of the dorsal midline in a cranial direction. The small incision was closed with metallic suture clips. […]
Cell viability was measured using a modified MTT assay. […] An aliquot (190 μl) from each well was transferred to a 96 well plate and absorbance read at 540 nm using a Multiskan Ascent photometric microplate reader (Thermo labsystem). Treated values were calculated as a percentage of the controls.

[6] = system: MDA-MB-231 cells; experiment: In vitro hollow fiber assay; format: cell-based; conditions: MDA-MB-231, in the presence of angiotensin II, 48 h
Experimental: as §1
(§2) Polyvinylidene difluoride (PVDF) hollow fibers (500 kDa cut-off, 1 mm inner diameter; Spectrum Europe B.V., Breda, Netherlands) were flushed through with 70% ethanol using a blunt 21 gauge needle and 10 ml syringe. Fibers were then immersed in 70% ethanol for 72 hours, flushed through again with 70% ethanol, then distilled water, and then autoclaved at 131° C. Finally, before loading cell suspensions, fibers were flushed through with RPMI 1640 culture medium. Cells (MCF-7, T47D, and MDA-MB-231) were introduced into fibers at densities of 2.5 to 3.0×10^6 cells/ml. Fibers were then heat-sealed at 2 cm intervals and placed in Petri dishes containing 3 ml of the cell appropriate medium.
(§3) Cell viability was measured using a modified MTT assay. Fibers were incubated in RPMI 1640 with 20% FBS containing 1 mg/ml MTT, and incubated at 37° C. under […], 5% CO2 for 4 hours. The reagent was aspirated, and 2 ml sterile filtered 2.5% protamine sulphate (0.9 g NaCl, 2.5 g protamine sulphate in 100 ml water) was added. Specimens were stored at 4° C. for a minimum of 24 hours in the dark to fix the formazan product. Fresh protamine sulphate (2.5%) was added and fibers were stored for a further 2 to 4 hours at 4° C. Each fiber was transferred to a well in a 24 well plate, cut in half and air-dried overnight, protected from light. Dimethyl sulphoxide (DMSO) (300 μl) was added to each well and the formazan product extracted. An aliquot (190 μl) from each well was transferred to a 96 well plate and absorbance read at 540 nm using a Multiskan Ascent photometric microplate reader (Thermo labsystem). Treated values were calculated as a percentage of the controls.

[7] = system: T47D cells; experiment: In vitro hollow fiber assay; format: cell-based; conditions: in the presence of angiotensin II, 48 h
Experimental: as §1, §2, §3

[8] = system: MCF-7 cells; experiment: In vitro hollow fiber assay; format: cell-based; conditions: MCF-7, in the presence of angiotensin II, 48 h
Experimental: as §1, §2, §3

B1: R6313/G2: murine scFv analogue of the 6313/G2 anti-AT1 receptor monoclonal antibody variable domains, SEQ ID NO:15 (protein)
scFv: YAAQPAMAQVKLQQSGPELEKPGASVKISCKASGYSFTGYNMNWVKQSNGKSLEWIGNIDPYYGGTTYNQKFKGKATLTVDKSSSTAYMQLKSLTSEDSAVYYCAREVDYWGQGTTVTVSSGGGGSGGGGSGGGGSDIELTQSPASLAVSLGQRATISYRASKSVSTSGYSYMHWNQQKPGQPPRLLIYLVSNLESGVPARFSGSGSGTDFTLNIHPVEEEDAATYYCQHIRELTRSEGTKLEIKRAAAGAPVPY
modifications: 12D
activity of clones (preliminary studies) [1]: highest activity | resting blood pressure [2]: does not reduce and may even increase resting blood pressure | stress-induced increases in blood pressure [2]: significantly inhibits the stress-induced increases in blood pressure | animal activity ([3]; 13 nmol/kg 2× per day): no effect | body weight ([3]; 13 nmol/kg 2× per day): no effect | circulating aldosterone concentrations ([3]; 13 nmol/kg 2× per day): no effect | body weights of the experimental animals ([3]; hollow fiber mice, during the period of treatment): no changes | effect on angiotensin II inhibition of caspase-3/7 activity ([4]; 100 nmol/L angiotensin II, 12 hours): inhibition was blocked | caspase-3/7 activity ([4]; R6313/G2 alone, 48 hours): dose-dependent increase of caspase-3/7 activity | in vitro concentration giving an anti-cancer cell effect equivalent to 25 nmol/Kg in vivo ([5]; comparison of in vivo dose 25 nmol/Kg with in vitro): 3.3 µmol/L | cancer cell growth in hollow fibers ([5]; intact nu/nu mice bearing cancer cells in hollow fibers): significantly inhibited cancer cell growth | cell survival in hollow fibers in vitro [6]: dose dependently inhibited survival | cell survival in hollow fibers in vitro [7]: dose dependently inhibited survival | cell survival in hollow fibers in vitro [8]: dose dependently inhibited survival
